Our source for the Kd values is publication doi:10.1101/2021.12.08.471876 (bioRxiv, 2021).

Assay [1] concerns the target T1, purified recombinant GRP78 protein (GRP78-His) (human, UniProt P11021 19-654, NT-647 fluorescent label (in the MST only)). In words: ITC. For orientation: Isothermal titration calorimetry measures the heat released or taken up as one component is titrated into another.
Assay [2] has as its target T1, purified recombinant GRP78 protein …. Description: MST.

T1 sequence (P11021 19-654): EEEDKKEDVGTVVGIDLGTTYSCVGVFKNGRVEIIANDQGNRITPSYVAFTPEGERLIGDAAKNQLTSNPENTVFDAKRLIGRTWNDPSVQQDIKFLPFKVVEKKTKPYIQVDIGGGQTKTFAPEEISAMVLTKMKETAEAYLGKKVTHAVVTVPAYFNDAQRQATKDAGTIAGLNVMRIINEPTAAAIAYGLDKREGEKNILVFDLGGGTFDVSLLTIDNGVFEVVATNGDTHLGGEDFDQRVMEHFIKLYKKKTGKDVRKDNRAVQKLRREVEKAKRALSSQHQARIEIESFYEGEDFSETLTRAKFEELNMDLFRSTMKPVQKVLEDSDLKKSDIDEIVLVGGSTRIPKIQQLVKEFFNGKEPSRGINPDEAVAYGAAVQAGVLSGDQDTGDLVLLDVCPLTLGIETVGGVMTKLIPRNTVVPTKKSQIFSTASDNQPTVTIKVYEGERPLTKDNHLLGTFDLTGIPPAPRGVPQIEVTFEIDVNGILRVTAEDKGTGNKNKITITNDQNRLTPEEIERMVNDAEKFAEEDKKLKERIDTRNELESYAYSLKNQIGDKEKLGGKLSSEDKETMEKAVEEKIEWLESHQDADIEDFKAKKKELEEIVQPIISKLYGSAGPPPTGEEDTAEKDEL

For the molecule QGIMQTVPAN [pep59], the Kd (as a rule, the equilibrium constant for the complex coming apart) in assay [1] came out at 10.6 nM.
In the case of DPAFGANSL [pep56], the dissociation constant (Kd) in assay [1] is 6.59 nM.

B1: GST-preS1 truncated protein preS1-p2 (residues 25-90) (domain or fragment)
chain: FPDHQLDPAFGANSNNPDWDFNPNKDHWPEANQVGAGAFGPGFTPPHGGLLGWSPQAQGILTTLPA
B1: the Kd in assay [2] amounted to 1200 nM.

B2: GST-preS1 truncated protein preS1-p3 (residues 66-119) (domain or fragment)
chain: GFTPPHGGLLGWSPQAQGILTTLPAAPPPASTNRQSGRQPTPISPPLRDSHPQA
For B2, the Kd in assay [2] was determined as 431 nM.
